In test [1] the target is Gramicidin A. As to the kind of experiment: single-channel recording in planar lipid bilayers; gA added to both compartments of a painted DPhPC bilayer; conductive channel = gA dimer; 10 mmol/L HEPES, 1 mol/L KCl, pH 7.4, 23 ± 2 °C, -100 mV; without and with AEA.
For test [2], the target named is Gramicidin A. As to the kind of experiment: single-channel recording in planar lipid bilayers; gA added to both compartments of a painted DOPC bilayer; conductive channel = gA dimer; 10 mmol/L HEPES, 1 mol/L KCl, pH 7.4, 23 ± 2 °C, -100 mV; without and with AEA (up to 3 umol/L) or 3 umol/L 2-AG.

As to Gramicidin A (peptide), the fold increase of channel appearance frequency f (f/f control = k1/k1,control) with 3 umol/L AEA over no AEA in test [1] was 4 fold; in test [2], 7.2 fold. Moreover, the values for the fold increase of open channel lifetime tau (tau control/tau = k-1/k-1,control) with 3 umol/L AEA over no AEA in test [1] and in test [2] were 1.4 fold and 1.8 fold, respectively.

The values above are taken from PMC5269673.
